From the DeepSol protein solubility set

Experiment: soluble on expression in E. coli; label from the status in PepcDB or PDB records

Sequence	soluble on expression in E. coli
MEIQFLGTGAGQPAKARNVSSLVLKLLDEINEVWMFDCGEGTQRQILETTIKPRKVKKIFITHMHGDHVFGLPGFLSSRAFQANEEQTDLDIYGPVGIKSFVMTALRTSGSRLPYRIHFHEFDESSLGKIMETDKFTVYAEKLDHTIFCMGYRVVQKDLEGTLDAEALKLAGVPFGPLFGKVKNGENVTLEDGREIIAKDYISEPKKGKVITILGDTRKTDASIRLALGADVLVHESTYGKGDERIAKSHGHSTNMQAADIAKQANAKRLLLNHVSARFMGRDCWQMEEDAKTIFSNTHLVRDLEEVGILEHHHHHH	soluble
MGKDSKKHKKERRRERSPSTSDSDEERLQKRLAEQRSLKKDEKRRQKEEMKKNESAEEKRARRMEKKMRKDAKRKDADAEDTLIPPELNYTNLNNPFNDTKLTQTFVWGKKLEREGKSGLTQDEITKQTSQRIRKNLHEAAEFKRIRDSRAAAKEDMEMMKRDADLRAGQISDTKEREFQMDQIKERTRIRIDQGRAKAIDLLSRYARFADENPHTAKIPDFELENPMEYLKASCKSVDDYEDLIEDIKTYREVDGWAKNETWWMDVTRIAEDEIQKKAAQNRGDVHASVQTEVQNMFKNKSIDELLKLEDQMDAKIRGNSGNKGYWQDLDDQLKVFIARKRLREHHGRVLRLQLAIIKEEQKKEIQQQESEELLPVAEVPPQVKIQKEEEEEEEEDEDDEKISKKVRRKIDVQTLDDPELDEPERERKWRALTGDQLDDVTRELYRIGCYRFSIFFLAEKPPTYISADDTMPGIEILDEQADVDNLTERRNRNRGTLPSSSAASSGAPQGASSKMMAIAREGMEADESIFGAEEQLAAQRHLWSDKYRPRKPTYLNRVQTGFDWNKYNQTHYDQDNPPPKIVQGYKFNIFYPDLLDMTVAPRFGLTSCEDPDFAIIRFKAGPPYEDIAFKVVNREWETLHKNGYKCQFQNGVFQLWFMFKKYRYRR	soluble
MSLDDGTGLFTIGQLARRTGLSVRTIRYWSDEGALPPVTRSSGGYRLYDAGSVARLELIRTLRELGLGLDDVREVLAGETTVAEVAATHVTALDAQIRALKVTRAVLSTVARRGSTAEEMTLMNKLARLSAAERRRILEEFADEMFRGLDTADPVIRERMRNTAVDLPDEPTPEQVDAWVELVELLQDPEFRAQMRAAAEFNAADRGHDSPAGASLWFVRRLVQLAADARQRGIAPEAPEAEEVLRELLGEADGAADRAAVLERLEATSNDRVARYRELLAVVKGGGPLPAHREEFGWVVAALRAREGHHHHHH	soluble
MGSDKIHHHHHHMGDDILSQEEVDALLRGVSGEDEDDDGGQDAQGVRGYDIGRQERIVRGRMPTLEIINERFARNLRIGLFNFLRRNAEISVGPVRVQKYSEFIRNLVVPTNLNLVHVKPLRGTGLLIFDPDLVFLIVDNLFGSDGRYHVRVEGRDFTPTEQRIIHRLLEVVFTECQKAWEPVYPIEFVYLRSEMNTQFANIATPTEVVVAMTFHIELGAGGGDFHICLPYSMVEPIRDLLSSTMQADRTEVDNRWVNLMTHQVQAAEVELVASLAHAKVTLGQILNLKNGDVVMIEIPERVEADVSGIPVFEASYGTVQGRYALKVEKILAGTNEFLESPGEHEQ	not soluble
VLIAGYLTDWRIMTTAQLRPIAPQKLHFSENLSVWVSDAQCRLVVSQPALDPTLWNTYLQGALRAYSKHGVECTLDLDAISDGSDTQLFFAAIDIGGDVVGGARVIGPLRSADDSHAVVEWAGNPGLSAVRKMINDRAPFGVVEVKSGWVNSDAQRSDAIAAALARALPLSMSLLGVQFVMGTAAAHALDRWRSSGGVIAARIPAAAYPDERYRTKMIWWDRRTLANHAEPKQLSRMLVESRKLLRDVEALSATTAATAGAEQ	not soluble
MSKVKRKLKNIVRNIMLSETFANTNLVKNMRKNHKEKLEEGRRVLFKEHAKDCLETIKENLDKNNLHFWLDYGTLLGAMREKDFIAHDLDIDLGMFYENQVEEVEKAFKEANIKKVREFTLDGKVVEQTYSYKGLYFDIFYYFKDENLMWTYGFTFKNNKLNKVSYKDKDVSTGFEGMKYFVKKRGLEKIMFKGKEYTVPENPDGYLRENYGPNYMTPIKEWDYVEAPTNQEKLKGGDIVMIEYYNLEHHHHHH	soluble
SNAERRLCAILAADMAGYSRLMERNETDVLNRQKLYRRELIDPAIAQAGGQIVKTTGDGMLARFDTAQAALRCALEIQQAMQQREEDTPRKERIQYRIGINIGDIVLEDGDIFGDAVNVAARLEAISEPGAICVSDIVHQITQDRVSEPFTDLGLQKVKNITRPIRVWQWVPDADRDQSHDPQPSHVQH	soluble
